Results on two molecules are retold here after US20180319855A1, “GENETICALLY MUTATED AEQUORIN-BASED BIOSENSORS WITH EXTRA SENSITIVITY TO CALCIUM AND IMPROVED BIOLUMINESCENCE INTENSITY” (CENTRE NATIONAL DE LA RECHERCHE SCIENTIFIQUE (CNRS), priority 2015, published 2018).

The subject of test [1] is pyramidal neurons of mouse neocortical slices. Description: Bioluminescence Ca2+ imaging of transduced neocortical slices in Mg2+-free ACSF. The format is cell-based. The conditions noted are these: native coelenterazine, 25 Hz. Here is the method: Recombinant Sindbis viruses were prepared and used to express Redquorin mutants and GA in neurons of brain slices as described (Drobac et al., 2010), (Tricoire and Lambolez, 2014). The coding sequences of Redquorin mutants and GA were first subcloned in the plasmid pSinRep5 (Invitrogen) upstream to the polyA signal. The resulting pSinRep5 plasmids encoding the fusion protein sensors as well as the helper plasmid pDH26S (Invitrogen) were then submitted to in vitro transcription to prepare capped RNA using the Megascript SP6 kit (Ambion). […]
Bioluminescence imaging was performed at room temperature using an intensified CDD video camera (ICCD225; Photek) controlled by the IFS32 software (Photek), and mounted on an upright microscope (BX51WI, Olympus) equipped with water immersion objectives ×10 (NA=0.3) and ×20 (NA=0.95). Prior to bioluminescence imaging, fluorescence images of GA- or Redquorin-transduced slices were acquired in the “bright field” mode of the camera using GFP (Semrock) or Cy3ET (Chroma) filter sets. […]
The transduced acute brain slices expressing the sensors were then perfused with artificial cerebrospinal fluid (ACSF) without Mg^2+. […] Before the threshold for depolarization, the recorded imaging intensity was very weak consistent with the concept of low background luminescence of photoproteins. […]

The test system of another test is endogenous P2Y2 receptor. The experiment in a line: Assay of activation of endogenous P2Y2 receptor by ATP in CHO cells stably expressing photoproteins. The format is cell-based. The conditions noted are these: CHO cells stably expressing the sensor; for EC50: ATP dose-response, read-out: EC50 (half-maximal effective concentration of ATP for P2Y2 activation). The protocol: Stably prepared CHO cells were loaded with 5 μM coelenterazine in 130 mM NaCl, 5 mM KCl, 1 mM MgCl2, 2 mM CaCl2, 5 mM NaHCO3, 20 mM N-(2-hydroxyethyl) piperazine-N′-ethanesulfonic acid (HEPES), pH 7.4 for 4 h at ambient temperature.
To produce stable CHO cell lines, the cells transfected with GA and Redquorin variant plasmids were seeded on six-well plates and grown in the same medium with addition of Geneticin sulfate (G418) (Gibco, UK) at 1 mg/ml under the same conditions with replacement of the medium by fresh medium every 2 days. After 7-10 days of selection, CHO cells were transferred into a medium without antibiotic. To select clones with the highest bioluminescence activity, one run of limiting dilution was performed. CHO cells after G418 selection were seeded on 96-well plates (approximately 0.5 cells per well) and grown in DMEM/F12 medium supplemented with 10% fetal calf serum at 37° C., 5% CO2 for up to 80-90% confluence. Before the bioluminescence measurements, the plates with monoclones of CHO cells expressing the corresponding photoprotein were duplicated and grown for up to 90-100% confluence. Then, the medium was removed and cells were loaded with coelenterazine, and bioluminescence in each well was measured according to the procedure described earlier. As a result, the CHO cell clones with the highest bioluminescence activity were selected.
Assay of Activation of Endogenous P2Y2 Receptor in CHO Cells
The CHO cell lines stably expressing each photoprotein were used in assay of activation of endogenous P2Y2 receptor by ATP. The day before the measurements, the corresponding cells were seeded on 96-well plates with DMEM/F12 medium supplemented with 10% fetal calf serum and were grown at 37° C. with 5% CO2 for up to 90-100% confluence. Then, the medium was replaced by 100 μl of coelenterazine solution per well (5 μM coelenterazine in 130 mM NaCl, 5 mM KCl, 1 mM MgCl2, 2 mM CaCl2, 5 mM NaHCO3, 20 mM HEPES, pH7.4) and the cells were incubated at 23° C. for 4 h. Emission from photoproteins in the cells was measured using a Mithras LB 940 plate luminometer. The ATP was injected at a given concentration to trigger an intracellular Ca^2+ response in the cells and the measurement started immediately. The bioluminescence was integrated over a time interval of 0.05 s for 30 s.

“And” between values parts separate entries of the source, which are not always exact repeats. Identical values can stand only once.

B1: Redq/Q159T: aporedquorin (tdTomato-aequorin fusion) mutant Q159T (SEQ ID NO:22) (protein)
chain: MVSKGEEVIKEFMRFKVRMEGSMNGHEFEIEGEGEGRPYEGTQTAKLKVTKGGPLPFAWDILSPQFMYGSKAYVKHPADIPDYKKLSFPEGFKWERVMNFEDGGLVTVTQDSSLQDGTLIYKVKMRGTNFPPDGPVMQKKTMGWEASTERLYPRDGVLKGEIHQALKLKDGGHYLVEFKTIYMAKKPVQLPGYYYVDTKLDITSHNEDYTIVEQYERSEGRHHLFLGHGTGSTGSGSSGTASSEDNNMAVIKEFMRFKVRMEGSMNGHEFEIEGEGEGRPYEGTQTAKLKVTKGGPLPFAWDILSPQFMYGSKAYVKHPADIPDYKKLSFPEGFKWERVMNFEDGGLVTVTQDSSLQDGTLIYKVKMRGTNFPPDGPVMQKKTMGWEASTERLYPRDGVLKGEIHQALKLKDGGHYLVEFKTIYMAKKPVQLPGYYYVDTKLDITSHNEDYTIVEQYERSEGRHHLFLSGFDNPRWIGRHKHMFNFLDVNHNGKISLDEMVYKASDIVINNLGATPEQAKRHKDAVEAFFGGAGMKYGVETDWPAYIEGWKKLATDELEKYAKNEPTLIRIWGDALFDIVDKDQNGAITLDEWKAYTKAAGIIQSSEDCEETFRVCDIDESGTLDVDEMTRQHLGFWYTMDPACEKLYGGAVP
modifications: mutant aequorin
As for B1, the “bioluminescence imaging response to Ca2+ transients” value in test [1] is listed as “performed as well as its analogue GA”. Further, in the test on endogenous P2Y2 receptor, the “[ATP] DL (detection limit)” value was 398 nM and 398 ± 17 nM; the EC50 is 1700 nM.

B2: Redq/Q159D: aporedquorin (tdTomato-aequorin fusion) mutant Q159D (SEQ ID NO:21) (protein)
chain: MVSKGEEVIKEFMRFKVRMEGSMNGHEFEIEGEGEGRPYEGTQTAKLKVTKGGPLPFAWDILSPQFMYGSKAYVKHPADIPDYKKLSFPEGFKWERVMNFEDGGLVTVTQDSSLQDGTLIYKVKMRGTNFPPDGPVMQKKTMGWEASTERLYPRDGVLKGEIHQALKLKDGGHYLVEFKTIYMAKKPVQLPGYYYVDTKLDITSHNEDYTIVEQYERSEGRHHLFLGHGTGSTGSGSSGTASSEDNNMAVIKEFMRFKVRMEGSMNGHEFEIEGEGEGRPYEGTQTAKLKVTKGGPLPFAWDILSPQFMYGSKAYVKHPADIPDYKKLSFPEGFKWERVMNFEDGGLVTVTQDSSLQDGTLIYKVKMRGTNFPPDGPVMQKKTMGWEASTERLYPRDGVLKGEIHQALKLKDGGHYLVEFKTIYMAKKPVQLPGYYYVDTKLDITSHNEDYTIVEQYERSEGRHHLFLSGFDNPRWIGRHKHMFNFLDVNHNGKISLDEMVYKASDIVINNLGATPEQAKRHKDAVEAFFGGAGMKYGVETDWPAYIEGWKKLATDELEKYAKNEPTLIRIWGDALFDIVDKDQNGAITLDEWKAYTKAAGIIQSSEDCEETFRVCDIDESGDLDVDEMTRQHLGFWYTMDPACEKLYGGAVP
modifications: mutant aequorin
As to B2, the “bioluminescence imaging response to Ca2+ transients” value in test [1] was “significant signal-over-background ratio”. In the test on endogenous P2Y2 receptor, the “[ATP] DL (detection limit)” value turned out to be 417 ± 16 nM and the EC50 came out at 2300 ± 200 nM.
